The supplement of paper PMC9112550, “Optimization of the antimicrobial peptide Bac7 by deep mutational scanning” (BMC Biology, 2022)

system: Escherichia coli TOP10; assay: shrunken log2 fold change of peptide-encoding DNA abundance (4.5 h post-induction vs induction); higher = less antimicrobial activity (less host growth inhibition); details: time post-induction: 4.5 h; library: site-saturation at positions 5, 18, 19, 20
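Note: peptides expressed intracellularly from a pBAD plasmid library in pooled LB shake-flask culture, induced with 0.3% L-arabinose, DNA abundance read by NGS, three biological replicates, DESeq2 with apeglm shrinkage.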

Sequence	shrunken log2 fold change
RRIRTRPPRLPRPRPRPFKMPRP	-0.184
RRIRERPPRLPRPRPRPRSEPRP	-0.0574
RRIRIRPPRLPRPRPRPAKKPRP	0.0493
RRIRIRPPRLPRPRPRPYKEPRP	0.0131
RRIRHRPPRLPRPRPRPQITPRP	-0.884
RRIRNRPPRLPRPRPRPPILPRP	0.144
RRIRSRPPRLPRPRPRPLYTPRP	-0.422
RRIRVRPPRLPRPRPRPDYPPRP	-0.177
RRIRLRPPRLPRPRPRPFMLPRP	-0.356
RRIRRRPPRLPRPRPRPQSPPRP	0.281
RRIRMRPPRLPRPRPRPQQDPRP	0.741
RRIRYRPPRLPRPRPRPQLTPRP	-0.0894
RRIRGRPPRLPRPRPRPIAQPRP	0.838
RRIRERPPRLPRPRPRPWLSPRP	0.0694
RRIRTRPPRLPRPRPRPGCRPRP	0.235
RRIRHRPPRLPRPRPRPLGEPRP	0.433
RRIRVRPPRLPRPRPRPRLIPRP	-0.293
RRIRLRPPRLPRPRPRPHNDPRP	-0.452
RRIRYRPPRLPRPRPRPTQRPRP	-0.164
RRIRDRPPRLPRPRPRPAQIPRP	0.263
RRIRTRPPRLPRPRPRPFCTPRP	-0.316
RRIRWRPPRLPRPRPRPEMIPRP	0.0062
RRIRFRPPRLPRPRPRPDIHPRP	-0.268
RRIRLRPPRLPRPRPRPFATPRP	-0.0878
RRIRGRPPRLPRPRPRPHGDPRP	1.11

Sequence	shrunken log2 fold change
RRIRGRPPRLPRPRPRPQVYPRP	0.23
RRIRCRPPRLPRPRPRPWERPRP	-0.118
RRIRHRPPRLPRPRPRPIPIPRP	-0.115
RRIRVRPPRLPRPRPRPGGYPRP	0.0682
RRIRSRPPRLPRPRPRPWSDPRP	-0.164
RRIRRRPPRLPRPRPRPCQEPRP	0.139
RRIRGRPPRLPRPRPRPDYVPRP	0.66
RRIRERPPRLPRPRPRPTCQPRP	0.00216
RRIRHRPPRLPRPRPRPVEWPRP	0.123
RRIRTRPPRLPRPRPRPNAYPRP	-0.195
RRIRERPPRLPRPRPRPPCRPRP	-0.0117
RRIRPRPPRLPRPRPRPNEGPRP	0.0293
RRIRYRPPRLPRPRPRPTPSPRP	0.421
RRIRYRPPRLPRPRPRPSYQPRP	-1.27
RRIRVRPPRLPRPRPRPFTDPRP	0.0809
RRIRFRPPRLPRPRPRPGKLPRP	-0.0682
RRIRTRPPRLPRPRPRPRINPRP	-0.506
RRIRKRPPRLPRPRPRPQSMPRP	-0.00568
RRIRTRPPRLPRPRPRPYYLPRP	-1.28
RRIRMRPPRLPRPRPRPERAPRP	2.76
RRIRGRPPRLPRPRPRPFGSPRP	0.081
RRIRFRPPRLPRPRPRPSMHPRP	-0.291
RRIRIRPPRLPRPRPRPLYQPRP	-0.904
RRIRPRPPRLPRPRPRPAPFPRP	0.143
RRIRFRPPRLPRPRPRPYFSPRP	-0.245

Sequence	shrunken log2 fold change
RRIRIRPPRLPRPRPRPFNVPRP	-0.217
RRIRKRPPRLPRPRPRPTHKPRP	0.658
RRIRWRPPRLPRPRPRPNADPRP	0.466
RRIRDRPPRLPRPRPRPKWLPRP	0.223
RRIRARPPRLPRPRPRPYYGPRP	-0.363
RRIRVRPPRLPRPRPRPEHVPRP	0.0447
RRIRCRPPRLPRPRPRPTYYPRP	-0.758
RRIRTRPPRLPRPRPRPAPGPRP	0.544
RRIRLRPPRLPRPRPRPNMLPRP	-0.58
RRIRPRPPRLPRPRPRPFKTPRP	-0.199
RRIRCRPPRLPRPRPRPWNIPRP	0.0152
RRIRYRPPRLPRPRPRPCRAPRP	-0.459
RRIRPRPPRLPRPRPRPNRMPRP	-0.138
RRIRSRPPRLPRPRPRPYNVPRP	0.00567
RRIRTRPPRLPRPRPRPRRDPRP	0.394
RRIRYRPPRLPRPRPRPDAIPRP	-0.224
RRIRDRPPRLPRPRPRPDDMPRP	0.155
RRIRPRPPRLPRPRPRPCAMPRP	0.0848
RRIRRRPPRLPRPRPRPYDMPRP	-0.532
RRIRKRPPRLPRPRPRPCSRPRP	0.015
RRIRCRPPRLPRPRPRPRVNPRP	0.0551
RRIRARPPRLPRPRPRPASYPRP	0.187
RRIRGRPPRLPRPRPRPHKMPRP	0.0936
RRIRCRPPRLPRPRPRPAQHPRP	0.0537
RRIRNRPPRLPRPRPRPNPWPRP	0.107

Sequence	shrunken log2 fold change
RRIRNRPPRLPRPRPRPFSWPRP	0.0512
RRIRARPPRLPRPRPRPMRDPRP	1.04
RRIRWRPPRLPRPRPRPPCFPRP	0.108
RRIRMRPPRLPRPRPRPMPMPRP	0.194
RRIRIRPPRLPRPRPRPYEFPRP	0.00826
RRIRVRPPRLPRPRPRPDYIPRP	-0.381
RRIRRRPPRLPRPRPRPDHEPRP	0.152
RRIRYRPPRLPRPRPRPMWFPRP	0.0169
RRIRWRPPRLPRPRPRPLFSPRP	0.0976
RRIRRRPPRLPRPRPRPHFSPRP	-0.187
RRIRSRPPRLPRPRPRPALYPRP	-0.124
RRIRTRPPRLPRPRPRPSDTPRP	-0.212
RRIRWRPPRLPRPRPRPLGVPRP	0.459
RRIRCRPPRLPRPRPRPAFHPRP	-0.389
RRIRKRPPRLPRPRPRPSWGPRP	0.00315
RRIRDRPPRLPRPRPRPVTKPRP	-0.173
RRIRQRPPRLPRPRPRPMWGPRP	-0.263
RRIRFRPPRLPRPRPRPTHQPRP	2.65
RRIRRRPPRLPRPRPRPGHPPRP	0.237
RRIRKRPPRLPRPRPRPVVAPRP	0.876
RRIRQRPPRLPRPRPRPCNSPRP	-0.0261
RRIRIRPPRLPRPRPRPQAEPRP	0.172
RRIRMRPPRLPRPRPRPEHEPRP	0.0191
RRIRTRPPRLPRPRPRPAKAPRP	-0.0213
RRIRYRPPRLPRPRPRPYPRPRP	-0.097

Sequence	shrunken log2 fold change
RRIRTRPPRLPRPRPRPEWFPRP	0.0821
RRIRQRPPRLPRPRPRPQMKPRP	-0.264
RRIRDRPPRLPRPRPRPWNGPRP	-0.176
RRIRTRPPRLPRPRPRPWSAPRP	-0.152
RRIRWRPPRLPRPRPRPSMHPRP	-0.0863
RRIRYRPPRLPRPRPRPWGWPRP	-0.0384
RRIRSRPPRLPRPRPRPSEVPRP	-0.015
RRIRIRPPRLPRPRPRPNKTPRP	-0.125
RRIRDRPPRLPRPRPRPINCPRP	-0.0287
RRIRARPPRLPRPRPRPDIVPRP	0.244
RRIRFRPPRLPRPRPRPWAQPRP	-0.141
RRIRQRPPRLPRPRPRPSGGPRP	0.0203
RRIRIRPPRLPRPRPRPVLYPRP	-0.598
RRIRDRPPRLPRPRPRPWCIPRP	-0.383
RRIRCRPPRLPRPRPRPCGTPRP	-0.306
RRIRMRPPRLPRPRPRPTEMPRP	0.14
RRIRARPPRLPRPRPRPISSPRP	-0.102
RRIRERPPRLPRPRPRPYYIPRP	-0.262
RRIRNRPPRLPRPRPRPNPAPRP	0.028
RRIRNRPPRLPRPRPRPQGYPRP	-0.667
RRIRHRPPRLPRPRPRPESAPRP	0.368
RRIRFRPPRLPRPRPRPDMPPRP	-0.016
RRIRYRPPRLPRPRPRPPNMPRP	-0.863
RRIRWRPPRLPRPRPRPDFEPRP	0.385
RRIRTRPPRLPRPRPRPLSEPRP	-0.127

Sequence	shrunken log2 fold change
RRIRARPPRLPRPRPRPIYIPRP	2.43
RRIRERPPRLPRPRPRPLHMPRP	-0.203
RRIRERPPRLPRPRPRPASCPRP	-0.211
RRIRNRPPRLPRPRPRPRAEPRP	0.103
RRIRFRPPRLPRPRPRPCKSPRP	-0.0582
RRIRARPPRLPRPRPRPMCHPRP	0.294
RRIRLRPPRLPRPRPRPCLQPRP	-0.207
RRIRPRPPRLPRPRPRPHNMPRP	-0.745
RRIRMRPPRLPRPRPRPGCGPRP	1.04
RRIRGRPPRLPRPRPRPYHCPRP	-0.0643
RRIRVRPPRLPRPRPRPFFSPRP	-0.371
RRIRPRPPRLPRPRPRPYFAPRP	-0.0984
RRIRFRPPRLPRPRPRPQKTPRP	0.00435
RRIRWRPPRLPRPRPRPFGHPRP	-0.102
RRIRQRPPRLPRPRPRPPVEPRP	0.265
RRIRHRPPRLPRPRPRPGAAPRP	0.324
RRIRVRPPRLPRPRPRPKCYPRP	0.0107
RRIRERPPRLPRPRPRPEQYPRP	-0.14
RRIRDRPPRLPRPRPRPPTQPRP	0.285
RRIRFRPPRLPRPRPRPHSFPRP	0.00365
RRIRNRPPRLPRPRPRPYTFPRP	-0.0167
RRIRYRPPRLPRPRPRPKDAPRP	-0.0259
RRIRQRPPRLPRPRPRPRDAPRP	0.494
RRIRLRPPRLPRPRPRPFDHPRP	-0.0264
RRIRNRPPRLPRPRPRPGPEPRP	0.684
